These results are taken from US20110171285A1, “Design of Fibrinogen and Fibrinogen Derived Products with Reduced Bacterial Binding by Using Modified Sequences of Fibrinogen Chains” (priority 2009, published 2011).

Like-named read-outs stand apart in the source and are kept apart here.

The target in test [1] is recombinant ClfA229-545 (S. aureus clumping factor A, N2N3 domains), 6xHis tagged (Staphylococcus aureus) (UniProt Q53653).
For test [2], the target named is human 15-mer C-terminal Fg γ-chain peptide (…) (human). The experiment in a line: human 15-mer peptide.
The target of test [3] is human 17-mer C-terminal Fg γ-chain peptide (…) (human). Nature of the test: human 17-mer peptide.
In test [4] the target is human fibrinogen (human) (UniProt P02671).
Chain of human fibrinogen (human) (P02671 20-629 limits assumed, chain 1 of 3): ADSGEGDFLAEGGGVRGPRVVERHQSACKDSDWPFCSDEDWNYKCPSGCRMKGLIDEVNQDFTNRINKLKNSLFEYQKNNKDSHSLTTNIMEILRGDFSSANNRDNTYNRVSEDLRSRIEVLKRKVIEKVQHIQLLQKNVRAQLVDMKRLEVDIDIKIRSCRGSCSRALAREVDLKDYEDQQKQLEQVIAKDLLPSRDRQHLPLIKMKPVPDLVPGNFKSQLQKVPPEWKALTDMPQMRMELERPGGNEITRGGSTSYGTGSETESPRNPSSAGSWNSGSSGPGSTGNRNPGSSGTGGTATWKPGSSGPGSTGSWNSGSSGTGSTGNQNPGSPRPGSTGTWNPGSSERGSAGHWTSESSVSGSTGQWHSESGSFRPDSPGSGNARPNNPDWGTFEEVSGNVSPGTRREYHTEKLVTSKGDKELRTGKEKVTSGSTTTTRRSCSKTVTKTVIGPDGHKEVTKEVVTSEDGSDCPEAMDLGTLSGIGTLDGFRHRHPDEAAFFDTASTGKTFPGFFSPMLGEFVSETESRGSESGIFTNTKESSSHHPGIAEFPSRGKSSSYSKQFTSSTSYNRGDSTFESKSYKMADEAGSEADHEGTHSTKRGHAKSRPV
Chain of human fibrinogen (human) (P02675 31-491 limits assumed, chain 2 of 3, further chain): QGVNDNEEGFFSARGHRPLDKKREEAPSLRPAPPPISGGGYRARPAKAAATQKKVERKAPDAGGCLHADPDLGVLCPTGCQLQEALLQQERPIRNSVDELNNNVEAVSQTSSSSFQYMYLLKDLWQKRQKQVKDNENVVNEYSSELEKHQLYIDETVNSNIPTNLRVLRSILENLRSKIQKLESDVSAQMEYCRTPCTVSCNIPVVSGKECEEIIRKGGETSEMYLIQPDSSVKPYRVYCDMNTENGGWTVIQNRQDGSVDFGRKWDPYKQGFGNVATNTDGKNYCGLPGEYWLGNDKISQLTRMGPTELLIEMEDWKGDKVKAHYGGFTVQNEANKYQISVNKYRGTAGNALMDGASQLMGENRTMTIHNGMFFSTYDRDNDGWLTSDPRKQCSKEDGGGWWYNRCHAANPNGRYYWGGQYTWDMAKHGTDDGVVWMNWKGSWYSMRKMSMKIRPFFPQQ
Chain of human fibrinogen (human) (P02679 other isoform, or with tags, fused parts or gaps limits assumed, chain 3 of 3, further chain): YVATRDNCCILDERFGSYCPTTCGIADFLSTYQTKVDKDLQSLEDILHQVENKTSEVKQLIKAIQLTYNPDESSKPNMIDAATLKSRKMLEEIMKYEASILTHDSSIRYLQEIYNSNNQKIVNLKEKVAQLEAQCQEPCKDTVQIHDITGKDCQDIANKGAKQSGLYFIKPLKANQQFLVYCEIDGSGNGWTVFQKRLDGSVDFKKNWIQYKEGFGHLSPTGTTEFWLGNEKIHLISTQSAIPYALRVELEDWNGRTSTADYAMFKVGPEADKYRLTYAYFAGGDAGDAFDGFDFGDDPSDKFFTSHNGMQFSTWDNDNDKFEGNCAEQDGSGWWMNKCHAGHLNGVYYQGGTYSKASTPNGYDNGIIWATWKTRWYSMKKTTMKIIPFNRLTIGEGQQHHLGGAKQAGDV
The target of test [5] is recombinant ClfA229-545 (S. aureus clumping factor A, N2N3 domains), 6xHis tagged (Staphylococcus aureus) (UniProt Q53653). This is another data set of the same source.

Chain of recombinant ClfA229-545 (S. aureus clumping factor A, N2N3 domains), 6xHis tagged (Staphylococcus aureus) (Q53653 229-545 limits assumed): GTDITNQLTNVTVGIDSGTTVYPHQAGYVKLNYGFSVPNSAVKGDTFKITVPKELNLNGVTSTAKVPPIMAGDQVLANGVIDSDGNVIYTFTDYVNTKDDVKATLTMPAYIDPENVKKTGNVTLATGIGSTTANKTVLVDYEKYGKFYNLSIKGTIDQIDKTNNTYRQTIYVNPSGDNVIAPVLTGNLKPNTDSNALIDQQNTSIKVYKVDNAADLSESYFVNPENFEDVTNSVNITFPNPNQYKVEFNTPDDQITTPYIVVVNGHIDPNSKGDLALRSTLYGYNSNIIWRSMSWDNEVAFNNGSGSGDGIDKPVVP

Consider “human 15-mer C-terminal Fg γ-chain peptide (…)”, for which, in test [1], the N stood at 1.29, the ΔH is -3640 and the ΔS stood at 8.03.

By Kd is commonly meant the constant that tells how readily two partners part at equilibrium. Lower therefore signals higher affinity. As usually defined, the EC50 (read off the curve) is the concentration at which the effect is half-maximal. Read a high EC50 (read off the curve) as weaker potency. For the substance “recombinant ClfA229-545 (S. aureus clumping factor A, N2N3 domains), 6xHis tagged (from UniProt Q53653 229-545)”, the Kd in test [2] was determined as 40 µM; in test [3], 23 µM. Besides, the half-maximal effective concentration (EC50 (read off the curve)) in test [4] turned out to be 0.2 µM.

For the substance “sheep (ovine) 15-mer C-terminal Fg γ-chain peptide (…)”, in test [5], the N amounted to 16.2, the ΔH amounted to 1340 and the ΔS came out at 20.4.
